# According to patent US20210221914A1:
# Legend:
# CD64 (FcgammaRI) = CD64 (FcgammaRI) (UniProt P12314); test: SPR, single-cycle kinetics, bivalent analyte model
# CD32a167H = CD32a167H (UniProt P12318); test: SPR, BIAcore 8K, antibody captured on anti-Fab chip, steady state affinity fit
# CD32a167R = CD32a167R (UniProt P12318); test: as above
# CD32b (FcgammaRIIb) = CD32b (FcgammaRIIb) (UniProt P31994); test: as above
# CD16a176F = CD16a176F (UniProt P08637); test: SPR, BIAcore 8K, antibody captured on anti-Fab chip, single-cycle kinetics, bivalent analyte model
# Sequence of CD16a176F (P08637 17-208 limits assumed): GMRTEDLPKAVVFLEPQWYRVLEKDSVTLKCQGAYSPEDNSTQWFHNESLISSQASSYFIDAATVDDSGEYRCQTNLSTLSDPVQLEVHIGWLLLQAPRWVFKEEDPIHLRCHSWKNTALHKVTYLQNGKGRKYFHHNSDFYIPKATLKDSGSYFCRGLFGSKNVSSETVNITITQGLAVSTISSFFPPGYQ
# CD16a176V = CD16a176V (UniProt P08637); test: as above
# Sequence of CD16a176V (P08637 17-208 F176V limits assumed): as the sequence (P08637 17-208 limits assumed) above, with F160V counted along it
# CD16b (FcgammaRIIIb) = CD16b (FcgammaRIIIb) (UniProt O75015); test: as above
# Sequence of CD32b (FcgammaRIIb) (P31994 46-217 limits assumed): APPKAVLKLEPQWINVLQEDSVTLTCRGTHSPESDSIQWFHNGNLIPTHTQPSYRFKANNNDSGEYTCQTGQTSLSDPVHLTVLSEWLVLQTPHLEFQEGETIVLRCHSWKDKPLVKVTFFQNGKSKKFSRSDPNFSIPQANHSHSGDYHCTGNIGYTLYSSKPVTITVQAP
# Sequence of CD32a167H (P12318 36-218 limits assumed): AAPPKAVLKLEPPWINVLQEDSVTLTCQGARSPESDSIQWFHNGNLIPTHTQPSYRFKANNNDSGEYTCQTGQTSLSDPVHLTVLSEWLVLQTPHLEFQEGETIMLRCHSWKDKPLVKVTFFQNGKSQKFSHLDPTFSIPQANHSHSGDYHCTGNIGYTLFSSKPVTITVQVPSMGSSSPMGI
# Sequence of CD32a167R (P12318 36-218 H167R limits assumed): as the sequence (P12318 36-218 limits assumed) above, with H132R counted along it
# Sequence of CD64 (FcgammaRI) (P12314 16-288 limits assumed): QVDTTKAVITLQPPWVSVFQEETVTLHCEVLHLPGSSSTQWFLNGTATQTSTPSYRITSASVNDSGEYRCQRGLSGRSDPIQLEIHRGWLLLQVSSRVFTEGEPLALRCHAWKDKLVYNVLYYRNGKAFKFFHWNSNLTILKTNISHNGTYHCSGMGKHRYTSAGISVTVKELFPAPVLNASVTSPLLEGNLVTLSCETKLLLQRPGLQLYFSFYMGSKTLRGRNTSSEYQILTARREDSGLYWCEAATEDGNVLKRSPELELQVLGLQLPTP
Substance,fold increase in off-rate relative to CD-WT (CD64 (FcgammaRI)) [fold],Kd (CD32a167H) [µM],Kd (CD32a167R) [µM],Kd (CD32b (FcgammaRIIb)) [µM],Kd (CD16a176F) [µM],koff (CD16a176F) [s⁻¹],kon (CD16a176F) [M⁻¹ s⁻¹],Kd (CD16a176V) [µM],koff (CD16a176V) [s⁻¹],kon (CD16a176V) [M⁻¹ s⁻¹],Kd (CD16b (FcgammaRIIIb)) [µM],koff (CD16b (FcgammaRIIIb)) [s⁻¹],kon (CD16b (FcgammaRIIIb)) [M⁻¹ s⁻¹]
"CD-GLU antibody (human IgG1, m1,17 allotype, CD loop replaced by the Glu epitope YMPMENNY)",1.2,0.505,0.488,1.61,1.05,0.189,181000,0.334,0.146,438000,0.556,0.168,302000
"CD-WT antibody (human IgG1, m1,17 allotype, wild-type CD loop)",,0.45,0.439,1.53,0.869,0.185,213000,0.241,0.181,751000,0.426,0.166,389000
